A short description of the data set: amyloid nucleation score (Sup35N fusion, yeast selection) (log enrichment); library NNK2; higher = more nucleation; inactive = no reads after selection. In short, it runs like this: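 The nucleation score is a DiMSum log enrichment of output over input reads, centred on the mode score of non-aggregating sequences. Sequences under 100 input reads were excluded, and reads came from Illumina sequencing of plasmid inserts. Psi-negative yeast expressing Sup35N fused to peptides of 20 random codons were induced with 100 μM copper sulfate for 24 hours and grown 7 days at 30°C on medium lacking adenine and uracil. Random libraries had three technical output replicates.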

± gives the uncertainty stated by the source.

In the case of DRPVCMYNMF, the amyloid nucleation score stood at 1.63 ± 0.28.
With AADSRYGGNGCFRSMLFALI the figure was 0.817 ± 0.45; with GYYGARFLVFKFMVRRWMMT, “inactive”; with WLYSIVCCDRKQSRSGMCDL, 4.96 ± 0.069.
To GHGFFLTTMSSGNNTDRNSG belongs -1.22 ± 1.1; to LPIDVSNVGTFVEWIFFAIR, -1.5 ± 0.54; to VSNRVLEMVSKEVASAKNQL, 0.288 ± 0.34.
To QQVQNAVCGWESYCSQLNRR belongs -0.241 ± 0.48.
As for NTLKVQIV, the amyloid nucleation score was found to be 2.94 ± 0.075.
With LLLPLFII the entry was “inactive”; with KRGKMHYCKFAHAAITVTQL, -0.515 ± 0.43; with IKRSTNISEMWHYSFGVTVL, -1.09 ± 0.63.
To TLELLIMD belongs 0.385 ± 0.33.
As to LTDCLLLLFGLLGRFYRNLS, the amyloid nucleation score result was “inactive”.
To TTSGNTIHIYVIQLSIQKFS belongs 5.39 ± 0.06.
To FCSFSMFRLAS belongs 0.606 ± 0.8; to IWEVNKVIIQYFPIAFKK, 5.713 ± 0.05.
With DIFLM the figure was 0.487 ± 0.15.
Consider FWGIVKYMWIFSTTYLNVFL, for which the amyloid nucleation score came out at 3.22 ± 0.11.
To SPCMCGYITINSLRPLLTFS belongs 5.797 ± 0.03.
To NLHFSLNCMIFQPTASRLKH belongs 6.824 ± 0.031; to LFLSLTTQNWFNYNLPI, 7.32 ± 0.026; to GARYTIWECF, “inactive”.
To AGRNIGIHIVGLDRQRSSAN belongs 0.278 ± 0.31.
Consider YLSYSTLLPKSETEWMYCVL, for which the amyloid nucleation score was -0.631 ± 1.
To RHGVMLGAVGVGSNDGSFLS belongs 2.29 ± 0.28; to YSGLSNLLGKMKRGSSLWVD, “inactive”.
GPCGVVVNFHRSCFCRFEFL showed an amyloid nucleation score of 7.61 ± 0.082.
The substance HSLSWKCV had an amyloid nucleation score of 0.346 ± 0.74.
On to CCSVCFRRLLYLLSRR, for which the amyloid nucleation score was found to be 6.9 ± 0.068.
To KYRCLLRATPFDKEVGSTRF belongs -0.753 ± 1.
To DHSYRRYVVEGLFSVSQNGK belongs 0.21 ± 0.54; to NVLSRYYQPYMAPPENKAWD, -0.277 ± 1.
To SESDSTLRSTIDSRLCGS belongs -0.53 ± 0.55; to DKYNTVRLCP, 0.987 ± 0.5; to DVCGD, -0.566 ± 0.48.
Turning to FRVKLTLRFLNITECCLDYL, the amyloid nucleation score amounted to 3.29 ± 0.095.
To VNMLTGLSKDK belongs -0.142 ± 0.23; to LAFMRLPAVVLSSTLSFMKS, 0.789 ± 0.66; to CCFVVISYDRNSQLH, 9.791 ± 0.043.
With GNYFPYFQVWSISRFLMSIS the entry was “inactive”.
To ITYPVESLYNAWSGGPVTDG belongs 0.164 ± 0.8; to LVTEVEFMSTAAGKECYCNI, -0.555 ± 0.35; to PAVFRHHPGKHVRHGSSTTT, 0.73 ± 0.28.
On to VNAEGTVMQSWHCHCDMSVL, for which the amyloid nucleation score is 6.245 ± 0.043.
To VINGVHLSRVLYNPILEFIT belongs “inactive”; to LDSVQWNGCMIRYSYLGMGW, -0.138 ± 0.3.
As for LDRSRTKSWLGDFWG, the amyloid nucleation score is -0.074 ± 0.46.
On to LRGQEKLWGVACSLVLIVTA, for which the amyloid nucleation score came out at 1.39 ± 0.15.
To YNGLEVAYLF belongs 5.43 ± 0.062; to SSRRGNDGWRCGPSCGGCTG, 3.65 ± 0.082.
To IGSRSMNYWLVVFD belongs 1.48 ± 0.11.
With GLWVV the figure was -1.02 ± 1.1; with LGFLAEELCMSMMGIVDVPE, “inactive”; with HNVGILWSSCCSRMYIAYAY, -0.288 ± 1.
With VDHYTETTRL, the amyloid nucleation score was 0.493 ± 0.24.
With RTVYYHQFPGSGFVYVSGFS the figure was -0.324 ± 1.1; with YYNSCKVN, -1.35 ± 1.1.
To SRFLLKDKSNTSGVMQLGMW belongs -0.374 ± 0.41; to YDRIGCRASTSLSAYPLATA, 2.58 ± 0.076.
For the substance SGMISRRHAYGAEVELVGSN, the amyloid nucleation score turned out to be 1.17 ± 0.43.
To LLKARLLRSHLWVG belongs 0.057 ± 0.43; to VWVWCFR, 8.331 ± 0.042.
To SCWRRMSSITPG belongs 1.68 ± 0.47; to CNCDMLFCTTVSFRVLDTEN, 8.295 ± 0.037; to PYNMVVYLGLLSRC, 0.919 ± 0.17.
Turning to ANQSVYLAEAVYQAGIEGRD, the amyloid nucleation score was found to be 0.358 ± 0.24.
With LWRVGHVHSWICPAICHGKC the figure was 4.37 ± 0.057.
Turning to RWYRRCLYT, the amyloid nucleation score was 0.162 ± 0.37.
In the case of SYVGVSNGRVVWVRVMANSK, the amyloid nucleation score result is “inactive”.
Consider KGGWYNNYGAVNKNGWCSDK, for which the amyloid nucleation score was -0.501 ± 1.1.
With DRINSFLFRETVWQNNWVIS the figure was -0.263 ± 0.79.
With KNDFLNM the entry was “inactive”.
With CNVSSELCYYGMSTYIKNPM the figure was -0.947 ± 0.32; with TVWCWVDRTMGLEWTYLTA, 1.1 ± 0.23; with VWELDRVVR, 0.783 ± 0.53.
For MGSAS, the amyloid nucleation score was determined as 0.682 ± 0.34.
With RCTGDLGRVARFWYETVKLN, the amyloid nucleation score is -0.066 ± 0.39.
With TYVDTVFSGSGCYLLYKGWI the figure was 0.851 ± 0.57; with QRLVSLYFRLSDGHMD, 3.3 ± 0.06.
For CNLESMQSHFMVLCTFDG, the amyloid nucleation score is -0.044 ± 0.63.
PGVMHICLCRTHTSRCKCTL registered an amyloid nucleation score of 0.402 ± 0.57.
With NYSDFVVMTRSVLFWYCDQR the figure was -0.424 ± 0.26; with LKGGIFRV, “inactive”.
With VCQVFVNGVSSDRVAVLVVI the figure was 5.25 ± 0.059; with KAYLCSFMMCFLL, 6.803 ± 0.056.
With TYMRGSLSEIGGTLL, the amyloid nucleation score came to 1.06 ± 0.19.
To KERLAFCMYGLGVDYVTFGN belongs 0.497 ± 0.57; to SVGRTESAQYRKTV, 0.568 ± 0.44.
In turn, KHEIQVS came in with an amyloid nucleation score of 0.33 ± 0.56.
With FFTHTWLRRLKTLCVSFVPK the figure was -0.516 ± 0.45; with LGSYVACPRDTKDYQNNSMC, -0.877 ± 0.48.
To KLIMFCDMLKVRSNNFRSRK belongs 5.55 ± 0.077; to NARFFNSFNSFM, 3 ± 0.076; to IVHWSLHFMRGKSAYYQYVV, “inactive”.
With SGDMCFWFSQTRHGLFKGIL the figure was -0.019 ± 0.37; with HCKSDPWLEPTSVWVFIRLV, 0.818 ± 0.23; with CQDSALALGDVFVPDKGVVR, 0.36 ± 0.8.
Regarding LTTSIL, the amyloid nucleation score is -1.06 ± 0.39.
With LKMCYFLRNKPTQMHVSGVY the figure was 0.04 ± 0.5; with MGLTEEVIKWQGHVGWTWAG, 1.55 ± 0.29.
To SPFTTSRDFMHRTPLLCDTC belongs 1.32 ± 0.33; to GRAYHESLSGDFVLFSSRRC, -0.815 ± 0.63; to VSAEWLYTGVWPMRLRSSGV, 3.95 ± 0.055.
With VRVGVWSMTFG the figure was -0.52 ± 0.78; with IIPLMLFSTLWGFKVHMKGY, -0.207 ± 0.55.
Turning to LKAQRFWTNNLSLEANSHRK, the amyloid nucleation score was -0.573 ± 1.1.
As for TYRSEYCICLLLSAFFQMKG, the amyloid nucleation score was -1.08 ± 1.1.
With ISDRSTHQASVLTFSPPDFY the entry was “inactive”; with VMVGLALYLKARGSNVDCGL, 3 ± 0.17.
Consider IRTLMYISHSAGGYLL, for which the amyloid nucleation score is -0.576 ± 0.44.
With RSSRW the figure was 2.82 ± 0.1; with LQRRCLINKNTGTPRLSN, -0.358 ± 1; with HLGHKKVRWDMSAELWQ, 2.75 ± 0.1.
To VVKFYWCIVQCCTWNGMKSH belongs 8.363 ± 0.067; to SNVLFLVLHRGRVKAVSRNE, -0.783 ± 1; to WGNGLSFTAACLLVLLKRNS, 2.2 ± 0.16.
With DICVKSRRSRPRV the figure was 0.591 ± 0.51; with KLFFTDGFLYGNPLLSDGLD, -0.58 ± 0.39.
For RLGSRGSLSFYVHLTCWVEV, the amyloid nucleation score is -0.27 ± 0.79.
With GCHICHRWIKSVYRSNHALM the figure was 0.291 ± 0.33; with ITFKISNGVWYLPKRL, 6.629 ± 0.038.
With WEASCVNPH the figure was -0.191 ± 0.65; with RVGTLSWTRAFVFLGYGMVQ, -0.044 ± 0.48.
To RLALY belongs 1.45 ± 0.25.
Turning to FVVGAES, the amyloid nucleation score is -0.821 ± 0.48.
Turning to GLSAMDDRMVPRIIYWIRLW, the amyloid nucleation score is -0.217 ± 0.36.
To VVCFMPSFYAGPKI belongs 5.281 ± 0.041; to SFPVWPVMYGGNCFSCFSLG, 9.094 ± 0.063; to EYYINFVNNTFCVDSLRSLD, 5.068 ± 0.035.
With DFIEMVLDGCSHGLATVCPT the entry was “inactive”; with TWRLKVVGQRQTFSKFTGLG, -0.133 ± 0.35.
To YPMNSVPDI belongs -0.858 ± 0.48; to ATVRLHNGFG, 0.127 ± 0.31.
On to LNDSLTIACSTNTANSWRNL, for which the amyloid nucleation score result is “inactive”.
With SYFMTLIVPGRLLWIDLEGV the figure was -0.823 ± 0.63; with CLGSLHNVLQALAMTEPSNY, 0.044 ± 0.79; with HIAID, 0.401 ± 0.56.
As for HAYSWNNRPVGVVRSRSRLF, the amyloid nucleation score was -0.597 ± 0.34.

Values taken from the supplement of paper PMC12042874.
